Measurements published in patent US20250361322A1 (ICONIC THERAPEUTICS, published 2025).
Where two headings read alike, the source gives them in different places.

Experiments:
[1] = molecular target: T1, Macaca mulatta TF on RF/6A cells (Macaca mulatta (protein sequence stated …, UniProt P13726 33-294 (human entry))); assay: flow cytometry, IgG1 titrated on TF-positive Macaca mulatta RF/6A cells, 4-parameter fit
T1 construct: Endogenous TF of the RF/6A cell line; also called TF-positive Macaca mulatta RF/6A cells; cynomolgus TF
T1 chain: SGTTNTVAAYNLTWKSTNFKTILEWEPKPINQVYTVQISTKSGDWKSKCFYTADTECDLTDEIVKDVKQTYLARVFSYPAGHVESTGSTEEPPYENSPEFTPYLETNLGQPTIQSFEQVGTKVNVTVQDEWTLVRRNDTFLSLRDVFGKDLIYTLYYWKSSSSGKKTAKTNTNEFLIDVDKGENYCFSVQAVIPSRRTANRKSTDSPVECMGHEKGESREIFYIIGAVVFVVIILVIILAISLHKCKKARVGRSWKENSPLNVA
Protocol: (§1) After 2 washes, dead cells were labeled with TO-PRO-3 Iodide (ThermoFisher Scientific) and samples were analyzed on a CytoFLEX flow cytometer (Beckman Coulter, Brea, CA, USA) or Novocyte flow cytometer (ACEA Biosciences, San Diego, CA, USA). The median fluorescence intensities (MFIs) at each dilution were plotted and cell EC₅₀'s were derived using a 4-parameter binding model in Prism (GraphPad, La Jolla, CA, USA).

Expi293-derived TF-His = molecular target: T2, Expi293-derived TF-His (human (Example 17 does not restate the …, UniProt P13726 33-251)); assay: protein ELISA, plate coated with Expi293-derived TF-His, antibody titrated, HRP secondary, luminescence; Expi293-derived TF, not E. coli-derived
T2 construct: Glycosylated TF ECD-His6 from Expi293 cells; also called Expi293-derived TF protein; TF ECD-His6
Protocol: (§2) Plates coated with Expi293- or E. coli-derived TF-His were incubated with increasing concentrations of antibodies.

E. coli-derived TF = molecular target: T3, E. coli-derived TF (human (Example 17 does not restate the …, UniProt P13726 33-251)); assay: protein ELISA, plate coated with E. coli-derived TF-His, antibody titrated, HRP secondary, luminescence
T3 construct: also called E. coli-derived TF-His; E. coli-derived TF protein
Protocol: as §2

[2] = molecular target: T4, r141-194_h chimeric rat-human TF construct on HEK293 cells (rat with human segment, UniProt P42533 29-252); assay: flow cytometry (live cell staining), antibody titration 1:3 from 250 nM on HEK293 cells transfected with r141-194_h
T4 construct: not shown: transmembrane/cytoplasmic anchor of the cell-surface construct

[3] = molecular target: T5, rTF (rat TF) construct on HEK293 cells (rat, UniProt P42533 29-252); assay: flow cytometry (live cell staining), antibody titration 1:3 from 250 nM on HEK293 cells transfected with rTF
T5 construct: not shown: transmembrane/cytoplasmic anchor of the cell-surface construct

rTF (rat TF) [4] = molecular target: T6, rTF (rat TF) (rat, UniProt P42533 29-252); assay: live cell staining, flow cytometry, transfected HEK293
Protocol: (§3) To establish binding of the anti-human TF antibodies to the various TF constructs, HEK293 cells were transfected with a DNA plasmid that co-expresses the TF construct and a green fluorescent protein marker. […] Upon acquisition of 80,000 live events on a flow cytometer, live cells marked with the fluorescent marker were analyzed for the degree of staining by the anti-TF antibody.

h159-219_r = h159-219_r (human/rat chimera); assay: as above
Protocol: as §3

h1-77_r = molecular target: T7, h1-77_r (human/rat chimera); assay: as above
T7 construct: Human TF ECD with residues 1-77 replaced by rat segment
Protocol: as §3

h1-107_r = molecular target: T8, h1-107_r (human/rat chimera); assay: as above
T8 chain: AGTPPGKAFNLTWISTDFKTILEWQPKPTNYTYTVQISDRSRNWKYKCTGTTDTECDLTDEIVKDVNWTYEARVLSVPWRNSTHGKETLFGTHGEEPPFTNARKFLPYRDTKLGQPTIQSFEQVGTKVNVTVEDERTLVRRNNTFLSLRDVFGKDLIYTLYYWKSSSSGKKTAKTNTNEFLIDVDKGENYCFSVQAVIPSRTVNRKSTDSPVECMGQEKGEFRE
Protocol: as §3

rTF (rat TF) [5] = molecular target: T6, rTF (rat TF); assay: as above; remark: listed apart in the source
Protocol: as §3

hTF_N171H_T197K = molecular target: T9, hTF_N171H_T197K (human, UniProt P13726 33-251); assay: as above
T9 chain: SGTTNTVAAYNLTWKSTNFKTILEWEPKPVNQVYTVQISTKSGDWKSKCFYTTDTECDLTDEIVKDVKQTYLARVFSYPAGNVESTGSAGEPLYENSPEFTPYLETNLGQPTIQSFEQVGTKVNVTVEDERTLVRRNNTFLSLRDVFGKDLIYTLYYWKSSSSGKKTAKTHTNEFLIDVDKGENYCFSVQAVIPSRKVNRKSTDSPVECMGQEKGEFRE
Protocol: as §3

r141-194_h = r141-194_h (rat/human chimera, UniProt P42533 29-252); assay: as above
Protocol: as §3

[6] = molecular target: T10, hTF (human Tissue Factor construct) (human, UniProt P13726 33-251); assay: as above
T10 construct: also called human TF
Protocol: as §3

[7] = molecular target: T11, full-length mouse TF with a C-terminal FLAG tag on Flp-In-CHO cells (mouse, UniProt P20352 29-294); assay: flow cytometry on CHO cells expressing mouse TF, MFI at 250 nM antibody
T11 construct: also called CHO-mTF; mouse TF-positive CHO cells
Protocol: as §1

[8] = molecular target: T12, human Tissue Factor on human TF-positive cells (human, UniProt P13726 33-295); assay: flow cytometry, titration of unconjugated antibody on HCT-116 cells (human TF), 4-parameter fit of MFI
T12 construct: also called hTF; CD142

[9] = molecular target: T13, cynomolgus monkey TF ECD-His6 (cynomolgus monkey (Macaca fascicularis)); assay: SPR (Biacore), TF-His over coupled antibody
T13 construct: Expi293-derived; also called TF-His; cTF
T13 chain: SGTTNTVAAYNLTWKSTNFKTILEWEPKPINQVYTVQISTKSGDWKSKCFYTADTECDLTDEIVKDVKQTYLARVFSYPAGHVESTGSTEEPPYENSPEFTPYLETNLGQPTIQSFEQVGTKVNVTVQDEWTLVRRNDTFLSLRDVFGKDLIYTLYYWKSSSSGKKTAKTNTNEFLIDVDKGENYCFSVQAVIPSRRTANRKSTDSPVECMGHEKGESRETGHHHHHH
Protocol: (§4) Kinetic measurements for the anti-TF antibodies were conducted on an Octet QK384 (Pall ForteBio, Fremont, CA, USA) or a Biacore (GE Healthcare Bio-Sciences).
(§5) For the Biacore-based measurements, the antibody was covalently coupled to a CM5 or C1 chip using an amine-coupling kit (GE Healthcare Bio-Sciences). Association between the anti-TF antibodies and a five-point three-fold titration of TF-His starting at 25 to 500 nM was measured for 300 sec. Subsequently, dissociation between the anti-TF antibody and TF-His was measured for up to 1800 sec. Kinetic data was analyzed and fitted globally using a 1:1 binding model.

human TF ECD-His6 [10] = molecular target: T14, human TF ECD-His6 (human, UniProt P13726 33-251); assay: SPR (Biacore), TF-His over coupled antibody
T14 construct: Expi293-derived; Biacore used TF-His; also called TF-His; hTF
Protocol: as §4, §5

[11] = molecular target: T12, human Tissue Factor on human …; assay: competition flow cytometry on MDA-MB-231 cells: unlabeled antibody titration first, then 20 nM 25A3-Alexa488 as the competitor
[12] = molecular target: T15, hTF_N171H_T197K construct on HEK293 cells (human, UniProt P13726 33-251); assay: live cell staining, HEK293 cells
T15 construct: The entry already carries N171H and T197K; not shown: transmembrane/cytoplasmic anchor of the cell-surface construct
T15 chain: T9 chain

[13] = molecular target: T12, human Tissue Factor on human …; assay: competition flow cytometry on MDA-MB-231 cells: unlabeled antibody titration first, then 20 nM 25A3-Alexa488 as the competitor; remark: listed apart in the source
[14] = molecular target: T12, human Tissue Factor on human …; assay: flow cytometry, antibody titration on HCT-116 cells (endogenous human TF), 4-parameter fit of MFI
Protocol: as §1

[15] = molecular target: T12, human Tissue Factor on human …; assay: flow cytometry, antibody titration on MDA-MB-231 cells (human TF), 4-parameter fit of MFI
Protocol: as §1

[16] = molecular target: T12, human Tissue Factor on human …; assay: competition flow cytometry on MDA-MB-231 cells: unlabeled antibody titration first, then 20 nM 43D7-Alexa488 as the competitor
Protocol: After another 1 hr incubation on ice, cells were washed, stained with a viability dye, and analyzed by flow cytometry. The Alexa488 fluorescence data from viable cells was summarized using median fluorescence intensity.

[17] = molecular target: T12, human Tissue Factor on human …; assay: flow cytometry, antibody titration on A431 cells (human TF), 4-parameter fit of MFI
Protocol: as §1

mouse TF ECD-His6 = molecular target: T16, mouse TF ECD-His6 (mouse, UniProt P20352 29-251); assay: BLI (ForteBio Octet)
T16 construct: Expi293-derived; also called TF-His; mTF
Protocol: as §4
(§6) Briefly, ForteBio affinity measurements were performed by loading IgGs on-line onto AHC sensors. Sensors were equilibrated off-line in assay buffer for 30 min and then monitored on-line for 60 seconds for baseline establishment. Sensors with loaded IgGs were exposed to 100 nM antigen (human, cynomolgus, or mouse TF) for 3 min, afterwards they were transferred to assay buffer for 3 min for off-rate measurement. Alternatively, binding measurements were obtained by loading biotinylated TF monomer on SA sensors followed by exposure to 100 nM antibody Fab in solution. Kinetic data was analyzed and fitted using a 1:1 Langmuir binding model and the KD was calculated by dividing the koff by the kₒₙ.

[18] = molecular target: T13, cynomolgus monkey TF ECD-His6; assay: BLI (ForteBio Octet)
Protocol: as §4, §6

human TF ECD-His6 [19] = molecular target: T14, human TF ECD-His6; assay: BLI (ForteBio Octet)
Protocol: as §4, §6

h108-219_r = molecular target: T17, h108-219_r (human/rat chimera); assay: live cell staining, flow cytometry, transfected HEK293
T17 chain: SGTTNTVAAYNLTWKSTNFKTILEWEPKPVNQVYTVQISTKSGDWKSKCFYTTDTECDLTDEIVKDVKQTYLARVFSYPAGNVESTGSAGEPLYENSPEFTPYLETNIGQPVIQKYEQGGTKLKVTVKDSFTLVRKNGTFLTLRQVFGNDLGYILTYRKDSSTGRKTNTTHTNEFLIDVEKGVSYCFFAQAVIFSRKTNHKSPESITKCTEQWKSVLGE
Protocol: as §3

B1: 1F (antibody, human IgG1, V domains shown)
VH: EVQLLESGGGLVQPGGSLRLSCAASGFTFSDYAMGWVRQAPGKGLEWVSTISGSGGLTYYADSVKGRFTISRDNSKNTLYLQMNSLRAEDTAVYYCAKAPYGYYMDVWGKGTTVTVSS
VL: not shown
notes: Human IgG1; also called antibody designated 1F
[1]
  EC50: 0.17 nM
Expi293-derived TF-His
  EC50: 0.41 nM
E. coli-derived TF
  EC50: 0.32 nM

B2: 10H10 (M1593) (antibody, V domains shown)
VH: EVQLVQSGAEVKKPGESLRISCKGSGYTFAPYWIEWVRQMPGKGLEWMGDILPGTGFTTYSPSFQGHVTISADKSISTAYLQWSSLKASDTAMYYCARSGYYGNSGFAYWGQGTLVTVSS
VL: DIVMTQTPLSLPVTPGEPASISCKSSQSLLSSGNQKNYLTWYLQKPGQSPQLLIYWASTRESGVPDRFSGSGSGTDFTLKISRVEAEDVGVYYCQNDYTYPLTFGQGTKLEIK
notes: also called anti-TF M1593
[2]
  binding result: no binding (tested: 250 nM)
[3]
  binding result: no binding (tested: 250 nM)

B3: 39A (antibody, V domains shown)
VH: QVQLVQSGAEVKKPGSSVKVSCKASGGTFSSNAIGWVRQAPGQGLEWMGSIIPIIGFANYAQKFQGRVTITADESTSTAYMELSSLRSEDTAVYYCARDSGYYYGASSFGMDVWGQGTTVTVSS
VL: EIVMTQSPATLSVSPGERATLSCRASQSVSSNLAWYQQKPGQAPRLLIYGASTRATGIPARFSGSGSGTEFTLTISSLQSEDFAVYYCEQYNNLPLTFGGGTKVEIK
notes: Human IgG (detected with anti-human IgG-Fc)
rTF (rat TF) [4]
  percent antibody binding to TF construct relative to hTF: 0%
h159-219_r
  percent antibody binding to TF construct relative to hTF: 141%
h1-77_r
  percent antibody binding to TF construct relative to hTF: 0%
h1-107_r
  percent antibody binding to TF construct relative to hTF: 0%
rTF (rat TF) [5]
  percent antibody binding to TF construct relative to hTF: 0%
hTF_N171H_T197K
  percent antibody binding to TF construct relative to hTF: 94%
r141-194_h
  percent antibody binding to TF construct relative to hTF: 0%
[6]
  percent antibody binding to TF construct relative to hTF: 100%

B4: 25A3 (antibody, human IgG1, V domains shown)
VH: QVQLVQSGAEVKKPGASVKVSCKASGYTFDVYGISWVRQAPGQGLEWMGWIAPYSGNTNYAQKLQGRVTMTTDTSTSTAYMELRSLRSDDTAVYYCARDAGTYSPFGYGMDVWGQGTTVTVSS
VL: DIQMTQSPSTLSASVGDRVTITCQASQSINNWLAWYQQKPGKAPKLLIYKAYNLESGVPSRFSGSGSGTEFTLTISSLQPDDFATYYCQLFQSLPPFTFGGGTKVEIK
notes: Human IgG1; also called antibody designated 25A3
[7]
  MFI at 250 nM: 5.8e+06
[8]
  EC50: 0.16 nM
[9]
  Kd: 0.21 nM
Human TF ECD-His6 [10]
  Kd: 0.36 nM
[11]
  IC50: 1.13 nM
[12]
  binding result: no binding (tested: 15 ug/ml (100 nM); below 50% of hTF)
[3]
  binding result: no binding (tested: 250 nM)
[13]
  IC50: 1.03 nM
[14]
  EC50: 0.077 nM
[15]
  EC50: 0.17 nM
[16]
  IC50: 0.84 nM
[17]
  EC50: 0.5 nM
Mouse TF ECD-His6
  Kd: 131 nM
[18]
  Kd: 1.36 nM
Human TF ECD-His6 [19]
  Kd: 1.67 nM

B5: 5G9 (humanized TF8-5G9, CNTO 860) (antibody, V domains shown)
VH: QVQLVESGGGVVQPGRSLRLSCKASGFNIKDYYMHWVRQAPGKGLEWIGLIDPENGNTIYDPKFQGRFTISADNSKNTLFLQMDSLRPEDTAVYYCARDNSYYFDYWGQGTPVTVSS
VL: DIQMTQSPSSLSASVGDRVTITCKASQDIRKYLNWYQQKPGKAPKLLIYYATSLADGVPSRFSGSGSGTDYTFTISSLQPEDIATYYCLQHGESPYTFGQGTKLEIT
notes: Previously described anti-TF antibody; detected with anti-human IgG-Fc; also called h5G9
h108-219_r
  percent antibody binding to TF construct relative to hTF: 0%
